From patent publication US20080145931A1, “Mature Dendritic Cell Compositions and Methods of Culturing Same” (Argos Therapeutics, Inc., priority 2004, published 2008) come the findings set out here.

For series [1], the target named is human CD40 (the receptor for CD40L) on monocyte-derived dendritic cells (human) (UniProt P25942). As to the kind of experiment: cell-based or functional assay.
In series [2] the test system is DCs. Kind of series: IL-12p70 and IL-10 secretion by DCs undergoing maturation (ELISA of culture supernatants). In kind it is cell-based, human. How it is done: Human PBMCs were isolated from Leukapheresis collections from healthy volunteers provided by Life Blood (Memphis, Tenn.). PBMCs were prepared by Ficoll-Histopaque density centrifugation and washed four times in PBS at room temperature. 2×10^8 PBMCs were re-suspended in 30 ml AIM-V medium and allowed to adhere to […] plastic flasks for 2 hours at 37° C. Non-adherent cells were removed and remaining cells cultured in X-VIVO 15 medium, supplemented with GM-CSF (1000 U/ml) and IL-4 (1000 U/ml), for 5-6 days at 37 C, 5% CO2.
Prior to electroporation, DCs were harvested and washed in PBS and then re-suspended in chilled Viaspane (Barr Laboratories) at 4×10^7/ml in 0.5 ml or 2.5×10^7/ml in 0.2 ml and placed on ice. DCs were mixed with mRNA (1 or 2 μg/10^6 for mRNA encoding antigen and 4 μg/10^6 for CD40L mRNA) and placed in a 4 mm gap electroporation cuvette and electroporated using Biorad apparatus. Immediately after electroporation, DCs were washed in X-VIVO 15 medium and finally re-suspended in X-VIVO 15 supplemented with GM-CSF (800 U/ml) and IL-4 (500 U/ml) at 1×10^6/ml and cultured for either 4 or 24 hours at 37° C. in low adherence six well plates (BD Biosciences, Franklin Lakes, N.J.). Additional maturation stimuli, described below, were also added at this point.
Following electroporation, DCs transfected with CD40L mRNA were treated with IFN-γ (1000 U/ml) or TNF-α (10 ng/ml) or a combination of IFN-γ and PGE2 (1 μg/ml). By comparison, immature DCs were transfected with various antigen-encoding mRNAs and were then treated with a “cytokine cocktail” comprising of TNF-α (10 ng/ml), IL-1β (10 ng/ml), IL-6 (100 ng/ml) and PGE2 (1 μg/ml) or soluble CD40L (200 ng/ml) plus enhancer (1 μg/ml) with either simultaneous or sequential addition of 1000 U/ml IFN-γ.
The method as laid out by BD Pharmingen for IL-12 and IL-10 ELISA sets (BD Pharmingen) using BD Opt EIA reagent set B pH 9.5. Briefly, ELISA plates (BD Biosciences) were coated with anti-IL-12p70 or anti-IL-10 ELISA capture antibody in coating buffer for 24 hours at 4° C. Plates underwent blocking with 200 μl per well 10% FCS/PBS for one hour prior to the addition of standards (BD Pharmingen) and supernatant samples, in duplicate, at 100 μl per well and incubated at room temperature for 2 hours. Plates were washed and anti-cytokine detection antibody added, incubated for one hour, the plates washed and solutions replaced with 100 μl of streptavidin-HRP and further incubated for one hour at room temperature. […] Plate analysis undertaken using Bio-Tek instruments ELx800 plate reader with KC junior software (Winooski, Vt.). […] Because the assays were set up so that 1 ml corresponds to 10^6 DCs, the results can also be expressed as number of picograms/10^6 DCs. […]

In the next series the test system is MART reactive T-cells. Kind of series: Induction of MART-1 specific CTLs in PBMC cultures, MART-1/HLA-A2 tetramer staining. In kind it is cell-based, human. Conditions: KRN7000 pulsed on MART-1 mRNA transfected DC, versus vehicle; FIG. 15b. How it is done:
(§1) 100 ng/ml of KRN7000 was pulsed onto the CD40L base process DCs immediately post electroporation in combination with 500 U/ml IFN-γ and 1 μg/ml PGE2, for 24 hrs of culture.
(§2) DCs were generated as described above, employing the ‘CD40L base process’, and loaded with mRNA encoding MART-1. Post electroporation, DCs were incubated with KRN7000, IFN-γ and PGE2. DCs and PBMCs were co-cultured at a 1:10 ratio in the presence of 20 U/ml IL-2. PBMCs were restimulated three times under the same conditions, and the frequency of CTL induction determined by staining with MART-1/A2 tetramers, and the expansion of NKT-cells enumerated using KRN7000/CD1d tetramers by FACS.

Another series deals with NKT-cells. As to the kind of experiment: Expansion of NKT-cells in PBMC cultures, CD1d/KRN7000 tetramer staining. In kind it is cell-based, human. Conditions: 100 ng/ml KRN7000 pulsed on MART-1 mRNA-loaded CD40L base process DCs, versus vehicle; FIG. 15a. How it is done:
as §1, §2

Series [3] deals with DCs. Kind of series: Transwell migration assay of DCs to lymph node chemokines CCL19 and 21. The series is classed as cell-based, human. The settings on record: 1 μg/ml PGE2 in addition to IFN-γ, CD40L mRNA transfected DCs; FIG. 8. How it is done: Chemotaxis of DCs was measured by migration through a 8 μm pore size polycarbonate filter in 24 well transwell chambers (coming Costar, Acton, MA). 5% human AB serum in Iscoves modified Dulbecco's medium or AIM-V medium containing 3-300 ng/ml CCL19, 5-250 ng/ml CCL21, a combination of both or medium alone was added to the lower chamber. 1−5×10^5 DCs in 0.1 ml were added to the upper chamber and incubated for 2-3 hours at 37° C. Lower chamber harvested into 5 ml tubes (BD Biosciences) and re-suspended in 0.1 ml PBS and viable cell counts undertaken using trypan blue.

In series [4] the target is human CD40L protein translated from transfected CD40L mRNA (CD40L WT, >400 nucleotide polyA tail) (human) (UniProt P29965). Kind of series: cell-based or functional assay.

Sequence of UniProt P25942 (P25942 21-277 limits assumed): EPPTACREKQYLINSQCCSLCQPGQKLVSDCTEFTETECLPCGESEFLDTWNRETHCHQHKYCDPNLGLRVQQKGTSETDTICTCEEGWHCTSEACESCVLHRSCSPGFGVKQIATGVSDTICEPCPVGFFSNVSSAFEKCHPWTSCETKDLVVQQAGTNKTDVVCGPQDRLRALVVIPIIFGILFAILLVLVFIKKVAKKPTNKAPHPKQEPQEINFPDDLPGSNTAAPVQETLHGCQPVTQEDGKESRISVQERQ

For “human CD40L protein translated from transfected CD40L mRNA (CD40L WT, >400 nucleotide polyA tail) (from UniProt P29965 1-261) (ligand)”, in series [1], the IL-12p70 (pg/ml), "Cocktail" matured and reactivated DCs co-cultured with HeLa/>400 polyA + IFN-γ is 26.3 pg/mL; the IL-12p70 (pg/ml), immature DCs co-cultured with HeLa/>400 polyA + IFN-γ came out at 372 pg/mL. In the case of TNF-α, in the series with DCs [2] (10 ng/ml TNF-α substituted for IFN-γ, CD40L mRNA transfected DCs, FIG. 5b), the IL-12 production entry is reported as “supports IL-12 production, but at reduced levels”. On to `CCCCCCCCCCCCCCCCCCCCCCCCCC(=O)N[C@@H](CO[C@H]1O[C@H](CO)[C@H](O)[C@H](O)[C@H]1O)[C@H](O)[C@H](O)CCCCCCCCCCCCCC` [KRN7000, (2S,3S,4R)-1-O-(alpha-D-galactopyranosyl)-2-(N-hexacosanoylamino)-1,3,4-octadecanetriol], for which the “frequency of MART reactive T-cells” value with MART reactive T-cells is recorded as “significantly increases the frequency of MART reactive T-cells”. The “frequency of NKT-cells in PBMC cultures” value in the series with NKT-cells is “increase the frequency of NKT-cells”. For `CCCCC[C@H](O)/C=C/[C@H]1[C@H](O)CC(=O)[C@@H]1C/C=C\CCCC(=O)O` [PGE2], in the series on DCs [3], the DC migration entry is reported as “enables the maturing DCs to migrate”. Take “pCR2.1 CD40L WT Delta X-E: CD40L RNA transcribed from plasmid modified by removal of XbaI-EcoRV fragment with three cryptic ATG codons (sense GCATGATCGAAACATACAACC; RNA transcript of DNA sequence, chemistry not fully specified)”: the “induction of IL-12 expression by transfected DCs” value with DCs [2] (two independent DC transfection experiments, about 20 hrs post transfection, FIG. 18) is reported as “performed better than the current CD40L reference standard”. Turning to “blocking CD40L monoclonal antibody 24-31 (eBioscience)”, in series [4], the IL-12p70 (pg/ml), "Cocktail" matured and reactivated DCs co-cultured with HeLa/>400 polyA + IFN-γ + 24-31 is 2.5 pg/mL; the IL-12p70 release from CD40L-mRNA-transfected DCs cultured with IFN-γ and 10 or 50 µg/ml blocking anti-CD40L antibody was 50%.

B1: IFN-γ: IFN-γ purchased from R&D Systems, first maturation signal (protein, listed as Homo sapiens)
chain: MKYTSYILAFQLCIVLGSLGCYCQDPYVKEAENLKKYFNAGHSDVADNGTLFLGILKNWKEESDRKIMQSQIVSFYFKLFKNFKDDQSIQKSVETIKEDMNVKFFNSNKKKRDDFEKLTNYSVTDLNVQRKAIHELIQVMAELSPAAKTGKRKRSQMLFQGRRASQ
On to B1, for which the “IFN-γ required to support optimal induction of IL-12p70” value in the series on DCs [2] (DCs transfected with 4 μg CD40L mRNA per million cells, FIG. 4) was “at least 100 U/ml”. For the same molecule, the IL-10 production entry in the series on DCs [2] (IFN-γ versus TNF-α as co-maturation factor, CD40L mRNA transfected DCs, FIG. 5c) is reported as “lower levels of IL-10 production than does TNF-α”.
